According to patent publication US10941182 (Amgen, dated 2021):
Values belong to the binder of their own block, whether it stands above or below them. Starred links: 1 amine or outer side, 2 acyl side, 3 side chain; linkers in the order of their positions; H or OH if unused. Non-standard residues stand in square brackets, D forms with d. *: point of attachment. dBip = N[C@H](Cc1ccc(-c2ccccc2)cc1)C(=O)O; Oic = O=C(O)[C@@H]1C[C@@H]2CCCC[C@@H]2N1; Phe(4-Cl) = N[C@@H](Cc1ccc(Cl)cc1)C(=O)O; dPhe(4-Cl) = N[C@H](Cc1ccc(Cl)cc1)C(=O)O; Phe(4-I) = N[C@@H](Cc1ccc(I)cc1)C(=O)O; γGlu = O=C(O)[C@H](CCC(=O)[*:2])N[*:1]; NMeR = CN[C@@H](CCCNC(=N)N)C(=O)O; Tridecanoyl = CCCCCCCCCCCCC(=O)*; hArg = N=C(N)NCCCC[C@H](N)C(=O)O; dTic = O=C(O)[C@H]1Cc2ccccc2CN1; Cha = N[C@@H](CC1CCCCC1)C(=O)O; NMeL = CN[C@@H](CC(C)C)C(=O)O; Tle = CC(C)(C)[C@H](N)C(=O)O; Nle = CCCC[C@H](N)C(=O)O; Deg = CCC(N)(CC)C(=O)O; AEEA = NCCOCCOCC(=O)O; Aib = CC(C)(N)C(=O)O; BLeu = β-leucine

How the values were obtained:
rat APJ receptor = biological target: T1, rat APJ receptor (rat, UniProt Q9JHG3 1-377); assay: cell-based or functional assay
T1 sequence (looked up): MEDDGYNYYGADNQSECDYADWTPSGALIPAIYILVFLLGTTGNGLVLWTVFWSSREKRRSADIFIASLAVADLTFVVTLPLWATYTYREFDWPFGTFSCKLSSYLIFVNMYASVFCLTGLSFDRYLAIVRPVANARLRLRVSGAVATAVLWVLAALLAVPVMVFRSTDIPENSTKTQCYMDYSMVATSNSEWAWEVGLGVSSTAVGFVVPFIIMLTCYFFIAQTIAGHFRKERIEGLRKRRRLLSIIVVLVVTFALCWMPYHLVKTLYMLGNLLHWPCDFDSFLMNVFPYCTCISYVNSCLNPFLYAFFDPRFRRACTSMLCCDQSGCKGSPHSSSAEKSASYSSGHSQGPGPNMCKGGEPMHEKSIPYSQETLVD

human APJ receptor = biological target: T2, human APJ receptor (human, UniProt P35414 1-380); assay: cell-based or functional assay
T2 sequence (looked up): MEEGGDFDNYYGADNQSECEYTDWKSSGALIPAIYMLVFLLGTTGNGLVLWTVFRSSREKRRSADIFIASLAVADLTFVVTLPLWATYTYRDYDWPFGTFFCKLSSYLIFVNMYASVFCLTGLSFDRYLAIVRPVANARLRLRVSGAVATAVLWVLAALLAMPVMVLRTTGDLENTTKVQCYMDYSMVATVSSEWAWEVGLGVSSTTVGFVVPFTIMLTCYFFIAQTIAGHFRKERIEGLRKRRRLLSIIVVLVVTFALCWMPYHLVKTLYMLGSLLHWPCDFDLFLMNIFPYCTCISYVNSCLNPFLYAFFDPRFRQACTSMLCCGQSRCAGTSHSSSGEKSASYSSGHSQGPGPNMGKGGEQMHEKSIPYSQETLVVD

- EC50 Rat APJ Receptor (rat APJ receptor): 0.00447 µM
- EC50 Human APJ Receptor (human APJ receptor): 2.04 nM
B1: apelin polypeptide SEQ ID NO: 280 (peptide)
peptide: Tridecanoyl-[γGlu][AEEA][AEEA][dQ][NMeR]P[dR][Cha]SHKG[Oic][Nle]P[Phe(4-Cl)]-OH
SMILES: CCCCCCCCCCCCC(=O)N[C@@H](CCC(=O)NCCOCCOCC(=O)NCCOCCOCC(=O)N[C@H](CCC(N)=O)C(=O)N(C)[C@@H](CCCNC(=N)N)C(=O)N1CCC[C@H]1C(=O)N[C@H](CCCNC(=N)N)C(=O)N[C@@H](CC1CCCCC1)C(=O)N[C@@H](CO)C(=O)N[C@@H](Cc1c[nH]cn1)C(=O)N[C@@H](CCCCN)C(=O)NCC(=O)N1[C@H](C(=O)N[C@@H](CCCC)C(=O)N2CCC[C@H]2C(=O)N[C@@H](Cc2ccc(Cl)cc2)C(=O)O)C[C@@H]2CCCC[C@@H]21)C(=O)O

- EC50 Rat APJ Receptor (rat APJ receptor): 0.0462 µM
- EC50 Human APJ Receptor (human APJ receptor): 8.04 nM
Binder: Tridecanoyl-[γGlu][AEEA][AEEA][dQ][hArg]P[dR][BLeu]SHKG[Oic][Nle]P[Phe(4-Cl)]-OH [apelin polypeptide SEQ ID NO: 274]

- EC50 Rat APJ Receptor (rat APJ receptor): 0.0145 µM
- EC50 Human APJ Receptor (human APJ receptor): 10.1 nM
Binder: Tridecanoyl-[γGlu][AEEA][AEEA][BLeu][hArg]P[dR][Cha]SHKG[Oic][Nle]P[Phe(4-Cl)]-OH [apelin polypeptide SEQ ID NO: 278]

- EC50 Rat APJ Receptor (rat APJ receptor): 0.0873 µM
- EC50 Human APJ Receptor (human APJ receptor): 14.8 nM
Binder: Tridecanoyl-[γGlu][AEEA][AEEA][dQ][hArg]P[dR][BLeu]SHKG[Oic][Nle]P[dPhe(4-Cl)]-OH [apelin polypeptide SEQ ID NO: 281]

- EC50 Rat APJ Receptor (rat APJ receptor): 0.0193 µM
- EC50 Human APJ Receptor (human APJ receptor): 3.29 nM
B7: apelin polypeptide SEQ ID NO: 279 (peptide)
peptide: Tridecanoyl-[γGlu][AEEA][AEEA]Q[NMeR]P[dR][Cha]SHKG[Oic][Nle]P[Phe(4-Cl)]-OH
SMILES: CCCCCCCCCCCCC(=O)N[C@@H](CCC(=O)NCCOCCOCC(=O)NCCOCCOCC(=O)N[C@@H](CCC(N)=O)C(=O)N(C)[C@@H](CCCNC(=N)N)C(=O)N1CCC[C@H]1C(=O)N[C@H](CCCNC(=N)N)C(=O)N[C@@H](CC1CCCCC1)C(=O)N[C@@H](CO)C(=O)N[C@@H](Cc1c[nH]cn1)C(=O)N[C@@H](CCCCN)C(=O)NCC(=O)N1[C@H](C(=O)N[C@@H](CCCC)C(=O)N2CCC[C@H]2C(=O)N[C@@H](Cc2ccc(Cl)cc2)C(=O)O)C[C@@H]2CCCC[C@@H]21)C(=O)O

- EC50 Rat APJ Receptor (rat APJ receptor): 0.0209 µM
- EC50 Human APJ Receptor (human APJ receptor): 16.1 nM
B9: apelin polypeptide SEQ ID NO: 277 (peptide)
peptide: Tridecanoyl-[γGlu][AEEA][AEEA][dL][hArg]P[dR][Cha]SHKG[Oic][Nle]P[Phe(4-Cl)]-OH
SMILES: CCCCCCCCCCCCC(=O)N[C@@H](CCC(=O)NCCOCCOCC(=O)NCCOCCOCC(=O)N[C@H](CC(C)C)C(=O)N[C@@H](CCCCNC(=N)N)C(=O)N1CCC[C@H]1C(=O)N[C@H](CCCNC(=N)N)C(=O)N[C@@H](CC1CCCCC1)C(=O)N[C@@H](CO)C(=O)N[C@@H](Cc1c[nH]cn1)C(=O)N[C@@H](CCCCN)C(=O)NCC(=O)N1[C@H](C(=O)N[C@@H](CCCC)C(=O)N2CCC[C@H]2C(=O)N[C@@H](Cc2ccc(Cl)cc2)C(=O)O)C[C@@H]2CCCC[C@@H]21)C(=O)O

- EC50 Rat APJ Receptor (rat APJ receptor): 0.0193 µM
- EC50 Human APJ Receptor (human APJ receptor): 3.43 nM
Binder: Tridecanoyl-[γGlu][AEEA][AEEA][dQ][hArg]P[NMeR][BLeu]SHKG[Oic][Nle]P[Phe(4-Cl)]-OH [apelin polypeptide SEQ ID NO: 275]

Further lines, the binder ahead of its results:

B2: apelin polypeptide SEQ ID NO: 271 (peptide)
peptide: Tridecanoyl-[γGlu][AEEA][AEEA][dQ][hArg]P[dR][Cha]SHKG[Oic][Nle][Deg][Phe(4-Cl)]-OH
SMILES: CCCCCCCCCCCCC(=O)N[C@@H](CCC(=O)NCCOCCOCC(=O)NCCOCCOCC(=O)N[C@H](CCC(N)=O)C(=O)N[C@@H](CCCCNC(=N)N)C(=O)N1CCC[C@H]1C(=O)N[C@H](CCCNC(=N)N)C(=O)N[C@@H](CC1CCCCC1)C(=O)N[C@@H](CO)C(=O)N[C@@H](Cc1c[nH]cn1)C(=O)N[C@@H](CCCCN)C(=O)NCC(=O)N1[C@H](C(=O)N[C@@H](CCCC)C(=O)NC(CC)(CC)C(=O)N[C@@H](Cc2ccc(Cl)cc2)C(=O)O)C[C@@H]2CCCC[C@@H]21)C(=O)O
- EC50 Rat APJ Receptor (rat APJ receptor): 0.00788 µM
- EC50 Human APJ Receptor (human APJ receptor): 11.8 nM

B3: apelin polypeptide SEQ ID NO: 267 (peptide)
peptide: Tridecanoyl-[γGlu][AEEA][AEEA]Q[dR]P[NMeR][Cha]SHKG[Oic][Nle]P[Phe(4-Cl)]-OH
SMILES: CCCCCCCCCCCCC(=O)N[C@@H](CCC(=O)NCCOCCOCC(=O)NCCOCCOCC(=O)N[C@@H](CCC(N)=O)C(=O)N[C@H](CCCNC(=N)N)C(=O)N1CCC[C@H]1C(=O)N(C)[C@@H](CCCNC(=N)N)C(=O)N[C@@H](CC1CCCCC1)C(=O)N[C@@H](CO)C(=O)N[C@@H](Cc1c[nH]cn1)C(=O)N[C@@H](CCCCN)C(=O)NCC(=O)N1[C@H](C(=O)N[C@@H](CCCC)C(=O)N2CCC[C@H]2C(=O)N[C@@H](Cc2ccc(Cl)cc2)C(=O)O)C[C@@H]2CCCC[C@@H]21)C(=O)O
- EC50 Rat APJ Receptor (rat APJ receptor): 0.0176 µM
- EC50 Human APJ Receptor (human APJ receptor): 0.753 nM

B4: apelin polypeptide SEQ ID NO: 270 (peptide)
peptide: Tridecanoyl-[γGlu][AEEA][AEEA][dQ][hArg]P[dR][Cha]SHKG[Oic][Nle][Aib][Phe(4-Cl)]-OH
SMILES: CCCCCCCCCCCCC(=O)N[C@@H](CCC(=O)NCCOCCOCC(=O)NCCOCCOCC(=O)N[C@H](CCC(N)=O)C(=O)N[C@@H](CCCCNC(=N)N)C(=O)N1CCC[C@H]1C(=O)N[C@H](CCCNC(=N)N)C(=O)N[C@@H](CC1CCCCC1)C(=O)N[C@@H](CO)C(=O)N[C@@H](Cc1c[nH]cn1)C(=O)N[C@@H](CCCCN)C(=O)NCC(=O)N1[C@H](C(=O)N[C@@H](CCCC)C(=O)NC(C)(C)C(=O)N[C@@H](Cc2ccc(Cl)cc2)C(=O)O)C[C@@H]2CCCC[C@@H]21)C(=O)O
- EC50 Rat APJ Receptor (rat APJ receptor): 0.00149 µM
- EC50 Human APJ Receptor (human APJ receptor): 1.76 nM

B5: apelin polypeptide SEQ ID NO: 273 (peptide)
peptide: Tridecanoyl-[γGlu][AEEA][AEEA][dQ][hArg]P[dR][Cha]S[Aib]KG[Oic][Nle]P[Phe(4-Cl)]-OH
SMILES: CCCCCCCCCCCCC(=O)N[C@@H](CCC(=O)NCCOCCOCC(=O)NCCOCCOCC(=O)N[C@H](CCC(N)=O)C(=O)N[C@@H](CCCCNC(=N)N)C(=O)N1CCC[C@H]1C(=O)N[C@H](CCCNC(=N)N)C(=O)N[C@@H](CC1CCCCC1)C(=O)N[C@@H](CO)C(=O)NC(C)(C)C(=O)N[C@@H](CCCCN)C(=O)NCC(=O)N1[C@H](C(=O)N[C@@H](CCCC)C(=O)N2CCC[C@H]2C(=O)N[C@@H](Cc2ccc(Cl)cc2)C(=O)O)C[C@@H]2CCCC[C@@H]21)C(=O)O
- EC50 Rat APJ Receptor (rat APJ receptor): 0.00509 µM
- EC50 Human APJ Receptor (human APJ receptor): 1.67 nM

B6: apelin polypeptide SEQ ID NO: 269 (peptide)
peptide: Tridecanoyl-[γGlu][AEEA][AEEA][dQ][hArg]P[dR][Cha]SHKG[Oic][Nle]P[dTic]-OH
SMILES: CCCCCCCCCCCCC(=O)N[C@@H](CCC(=O)NCCOCCOCC(=O)NCCOCCOCC(=O)N[C@H](CCC(N)=O)C(=O)N[C@@H](CCCCNC(=N)N)C(=O)N1CCC[C@H]1C(=O)N[C@H](CCCNC(=N)N)C(=O)N[C@@H](CC1CCCCC1)C(=O)N[C@@H](CO)C(=O)N[C@@H](Cc1c[nH]cn1)C(=O)N[C@@H](CCCCN)C(=O)NCC(=O)N1[C@H](C(=O)N[C@@H](CCCC)C(=O)N2CCC[C@H]2C(=O)N2Cc3ccccc3C[C@@H]2C(=O)O)C[C@@H]2CCCC[C@@H]21)C(=O)O
- EC50 Rat APJ Receptor (rat APJ receptor): 0.0523 µM
- EC50 Human APJ Receptor (human APJ receptor): 73 nM

B8: apelin polypeptide SEQ ID NO: 21 (peptide)
peptide: Ac-[hArg][hArg]Q[hArg][Oic][dR][NMeL]SHKG[Oic][Phe(4-I)]P[dBip]-OH
SMILES: CC(=O)N[C@@H](CCCCNC(=N)N)C(=O)N[C@@H](CCCCNC(=N)N)C(=O)N[C@@H](CCC(N)=O)C(=O)N[C@@H](CCCCNC(=N)N)C(=O)N1[C@H](C(=O)N[C@H](CCCNC(=N)N)C(=O)N(C)[C@@H](CC(C)C)C(=O)N[C@@H](CO)C(=O)N[C@@H](Cc2c[nH]cn2)C(=O)N[C@@H](CCCCN)C(=O)NCC(=O)N2[C@H](C(=O)N[C@@H](Cc3ccc(I)cc3)C(=O)N3CCC[C@H]3C(=O)N[C@H](Cc3ccc(-c4ccccc4)cc3)C(=O)O)C[C@@H]3CCCC[C@@H]32)C[C@@H]2CCCC[C@@H]21
- EC50 Rat APJ Receptor (rat APJ receptor): 0.0018 µM
- EC50 Human APJ Receptor (human APJ receptor): 0.57 nM

B10: apelin polypeptide SEQ ID NO: 272 (peptide)
peptide: Tridecanoyl-[γGlu][AEEA][AEEA][dQ][hArg]P[dR][Cha]SHKG[Oic][Tle]P[Phe(4-Cl)]-OH
SMILES: CCCCCCCCCCCCC(=O)N[C@@H](CCC(=O)NCCOCCOCC(=O)NCCOCCOCC(=O)N[C@H](CCC(N)=O)C(=O)N[C@@H](CCCCNC(=N)N)C(=O)N1CCC[C@H]1C(=O)N[C@H](CCCNC(=N)N)C(=O)N[C@@H](CC1CCCCC1)C(=O)N[C@@H](CO)C(=O)N[C@@H](Cc1c[nH]cn1)C(=O)N[C@@H](CCCCN)C(=O)NCC(=O)N1[C@H](C(=O)N[C@H](C(=O)N2CCC[C@H]2C(=O)N[C@@H](Cc2ccc(Cl)cc2)C(=O)O)C(C)(C)C)C[C@@H]2CCCC[C@@H]21)C(=O)O
- EC50 Rat APJ Receptor (rat APJ receptor): 0.0115 µM
- EC50 Human APJ Receptor (human APJ receptor): 16.8 nM
